This assay concerns the target purified human recombinant von Willebrand factor (multimeric) (human, UniProt P04275 764-2813). Kind of assay: cell-based or functional assay.

B1: human recombinant W1183R complement factor H (natural protein, UniProt P08603 19-1231, looked up)
chain: EDCNELPPRRNTEILTGSWSDQTYPEGTQAIYKCRPGYRSLGNVIMVCRKGEWVALNPLRKCQKRPCGHPGDTPFGTFTLTGGNVFEYGVKAVYTCNEGYQLLGEINYRECDTDGWTNDIPICEVVKCLPVTAPENGKIVSSAMEPDREYHFGQAVRFVCNSGYKIEGDEEMHCSDDGFWSKEKPKCVEISCKSPDVINGSPISQKIIYKENERFQYKCNMGYEYSERGDAVCTESGWRPLPSCEEKSCDNPYIPNGDYSPLRIKHRTGDEITYQCRNGFYPATRGNTAKCTSTGWIPAPRCTLKPCDYPDIKHGGLYHENMRRPYFPVAVGKYYSYYCDEHFETPSGSYWDHIHCTQDGWSPAVPCLRKCYFPYLENGYNQNYGRKFVQGKSIDVACHPGYALPKAQTTVTCMENGWSPTPRCIRVKTCSKSSIDIENGFISESQYTYALKEKAKYQCKLGYVTADGETSGSITCGKDGWSAQPTCIKSCDIPVFMNARTKNDFTWFKLNDTLDYECHDGYESNTGSTTGSIVCGYNGWSDLPICYERECELPKIDVHLVPDRKKDQYKVGEVLKFSCKPGFTIVGPNSVQCYHFGLSPDLPICKEQVQSCGPPPELLNGNVKEKTKEEYGHSEVVEYYCNPRFLMKGPNKIQCVDGEWTTLPVCIVEESTCGDIPELEHGWAQLSSPPYYYGDSVEFNCSESFTMIGHRSITCIHGVWTQLPQCVAIDKLKKCKSSNLIILEEHLKNKKEFDHNSNIRYRCRGKEGWIHTVCINGRWDPEVNCSMAQIQLCPPPPQIPNSHNMTTTLNYRDGEKVSVLCQENYLIQEGEEITCKDGRWQSIPLCVEKIPCSQPPQIEHGTINSSRSSQESYAHGTKLSYTCEGGFRISEENETTCYMGKWSSPPQCEGLPCKSPPEISHGVVAHMSDSYQYGEEVTYKCFEGFGIDGPAIAKCLGEKWSHPPSCIKTDCLSLPSFENAIPMGEKKDVYKAGEQVTYTCATYYKMDGASNVTCINSRWTGRPTCRDTSCVNPPTVQNAYIVSRQMSKYPSGERVRYQCRSPYEMFGDEEVMCLNGNWTEPPQCKDSTGKCGPPPPIDNGDITSFPLSVYAPASSVEYQCQNLYQLEGNKRITCRNGQWSEPPKCLHPCVISREIMENYNIALRRTAKQKLYSRTGESVEFVCKRGYRLSSRSHTLRTTCWDGKLEYPTCAKR
In the case of B1, the “cleavage product (~350 kD band) of multimeric VWF by recombinant ADAMTS-13 under vortexing-induced shear, with 0–2 μM W1183R-CFH” value was roughly 2 fold.

The values above are taken from publication PMC13123425, “A mutant complement factor H (W1183R) enhances proteolytic cleavage of von Willebrand factor by ADAMTS-13 under shear” (Journal of thrombosis and haemostasis : JTH, 2025).
